Three substances from PMC7706699 can be followed below.

The target in the test is hFip1 (residues 137–243) S159C/C189S/C216S mutant, FAM-labeled (human) (UniProt Q6UN15). Put plainly: fluorescence polarisation. A general note: In fluorescence polarisation assays a small probe gives low polarisation when free and higher when bound to something large.
For “human CPSF30 (residues 62–244) Y127A mutant (from UniProt O95639-2 62-244) (domain or fragment)”, the equilibrium dissociation constant (Kd) came out at 0.022 µM. To “human CPSF30 (residues 62–244) Y151A mutant (from UniProt O95639-2 62-244) (domain or fragment)” belongs 0.0054 µM; to “human CPSF30 ZF2–C terminus (residues 62–244), wild type (from UniProt O95639-2 62-244) (domain or fragment)”, 0.0114 µM.

For orientation: Kd means the concentration at which binding is half-saturated. The low end stands for higher affinity, the high end for lower affinity.
